Results reported in publication PMC2816707, “A Humanized Anti-VEGF Rabbit Monoclonal Antibody Inhibits Angiogenesis and Blocks Tumor Growth in Xenograft Models” (PLoS ONE, 2010).
Positions count from the first letter of the chain named.

Legend:
[1] = biological target: T1, Recombinant human VEGF165 (human, UniProt P15692-4, strain); assay: SPR; BIAcore 3000; antibodies immobilised on CM5 chips by amine coupling (about 600 RU); VEGF165 (R&D Systems) injected at 0.2 to 50 nM, 35 µl/min, 25°C, HBS-P (10 mM HEPES pH 7.4, 150 mM NaCl, 0.005% P20); 1:1 binding model, global fit; conditions: both partners purified
T1 construct: also called human vascular endothelial growth factor-A; VEGF-A165; source: bought: Shanghai Primegene Bio-Tech Co. and R&D System

[2] = biological target: T1, Recombinant human VEGF165; assay: cell-based or functional assay
Target sequence in this assay (P15692 whole entry, looked up, stated change not applied): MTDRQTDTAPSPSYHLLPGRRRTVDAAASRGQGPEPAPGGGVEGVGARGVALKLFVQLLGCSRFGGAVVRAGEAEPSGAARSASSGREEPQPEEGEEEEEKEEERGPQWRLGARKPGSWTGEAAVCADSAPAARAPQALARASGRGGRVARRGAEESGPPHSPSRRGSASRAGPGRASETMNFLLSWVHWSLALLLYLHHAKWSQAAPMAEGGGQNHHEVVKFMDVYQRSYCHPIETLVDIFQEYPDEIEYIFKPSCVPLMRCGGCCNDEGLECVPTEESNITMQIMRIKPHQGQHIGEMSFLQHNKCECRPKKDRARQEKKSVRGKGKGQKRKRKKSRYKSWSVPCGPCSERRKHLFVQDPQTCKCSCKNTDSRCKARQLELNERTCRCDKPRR

[3] = biological target: T1, Recombinant human VEGF165; assay: ELISA; VEGF/VEGFR-2 interaction ELISA: 5 µg/ml Fc-VEGFR-2 (ECD) coated; antibody pre-incubated 1 hour with recombinant human VEGF (0.5 µg/ml final) before transfer to the plate; bound VEGF detected by a mouse anti-VEGF165 monoclonal antibody; triplicates; conditions: both partners purified
[4] = biological target: T1, Recombinant human VEGF165; assay: as above; conditions: both partners purified; remark: listed apart in the source
[5] = biological target: T2, rabbit IgG Fc-hVEGF (human VEGF165) fusion protein, wild type (human, UniProt P15692-4); assay: ELISA; VEGF capture ELISA: Fc-VEGF supernatants captured on coated goat anti-rabbit IgG (H+L); hEBV321 at various concentrations, 1 hr at 37°C; detected by anti-human IgG alkaline phosphatase; conditions: one partner purified
T2 construct: also called Fc-VEGF; VEGF wild type; source: HEK-293E cells, transient transfection, cleared culture supernatant; not shown: Fc (rabbit IgG), N-terminal, kept
T2 sequence (P15692 other isoform, or with tags, fused parts or gaps): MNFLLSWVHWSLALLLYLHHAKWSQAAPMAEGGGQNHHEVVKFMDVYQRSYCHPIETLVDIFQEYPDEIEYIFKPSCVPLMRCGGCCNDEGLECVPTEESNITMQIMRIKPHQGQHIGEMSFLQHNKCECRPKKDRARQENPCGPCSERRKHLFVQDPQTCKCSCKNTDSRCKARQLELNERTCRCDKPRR

[6] = biological target: T1, Recombinant human VEGF165; assay: SPR; BIAcore 3000; antibodies immobilised on CM5 chips by amine coupling (about 600 RU); VEGF165 (R&D Systems) injected at 0.2 to 50 nM, 35 µl/min, 25°C, HBS-P (10 mM HEPES pH 7.4, 150 mM NaCl, 0.005% P20); 1:1 binding model, global fit; conditions: both partners purified; remark: listed apart in the source
[7] = biological target: T1, Recombinant human VEGF165; assay: ELISA; direct competition ELISA: human VEGF-A165 coated (0.05 µg/ml); reference antibody (0.04 µg/ml) mixed with increasing concentration of competitor, 1 hr at room temperature; bound reference antibody detected by anti-rabbit IgG Fc secondary antibody, chemiluminescence; conditions: both partners purified
Target sequence in this assay (P15692 whole entry, looked up, stated change not applied): as the sequence (P15692 whole entry, looked up, stated change not applied) above

[8] = biological target: T1, Recombinant human VEGF165; assay: ELISA; antigen binding ELISA with the antigen coated on a 96-well plate; paired H and L chains of the 15 antibodies; grades against background reading
Target sequence in this assay (P15692 whole entry, looked up, stated change not applied): as above

B1: anti-VEGF RabMAb EBV321 (antibody, V domains shown)
VH: QSLEESGGDLVKPGASLTLSCTASGFSFSNNDVMCWVRQAPGKGLEWIGCIMTTDVVTEYANWAKSRFTVSKTSSSTVTLQLTSLTVADTATYFCARDSVGSPLMSFDLWGPGTLVTVSS
VL: LVMTQTPASVSAAVGGTVTINCQASQSVYGNNELSWYQQKPGQPPKLLIYRASTLASGVPSRFSGSGSGTQFTLTISGVQCADAATYYCGGYKSYSNDGNGFGGGTEVVVK
notes: also called parental EBV321; source: 293-6E cells, L and H chain plasmids co-transfected, purified (protein A)
Kd [1]: 0.419 nM | koff [1]: 0.00119 s⁻¹ | kon [1]: 2.85e+06 M⁻¹ s⁻¹ | IC50 of inhibition of VEGF-stimulated HUVEC proliferation [2]: 0.039 nM | IC50 [3]: 0.56 nM | IC50 [4]: 4.1 nM

B2: humanized EBV321 (antibody, V domains shown)
VH: EVQLVESGGGLVKPGGSLRLSCAASGFSFSNNDVMCWVRQAPGKGLEWIGCIMTTDVVTEYANWAKSRFTVSRDSAKNSVYLQMNSLRAEDTAVYFCARDSVGSPLMSFDLWGPGTLVTVSS
VL: DIQMTQSPSSLSASVGDRVTINCQASQSIYNNNELSWYQQKPGKPPKLLIYRASTLASGVPSRFSGSGSGTDFTLTISSLQPEDVATYYCGGYKSYSNDGNGFGGGTKVEIK
notes: also called hEBV321; humanized anti-VEGF RabMAb; source: 293-6E cells, L and H chain plasmids co-transfected, purified (protein A)
Kd [1]: 0.0115 nM | koff [1]: 1.88e-05 s⁻¹ | kon [1]: 1.63e+06 M⁻¹ s⁻¹ | binding result [5]: binds | IC50 of inhibition of VEGF-stimulated HUVEC proliferation [2]: 0.008 nM | Kd [6]: 0.0119 nM | inhibition of EBV321 binding to VEGF at 5 fold excess [7]: 50% | IC50 [4]: 3.2 nM

B3: heavy chain of EBV302 paired with light chain of EBV307 (antibody, V domains shown)
VH: B1 VH with S20T, D32A, S76T, L82M
VL: B1 VL with P44R, A82F, G90S, S96Y, N100S
notes: also called 302H/307L
binding result [8]: binds

B4: heavy chain of EBV302 paired with light chain of EBV321 (antibody, V domains shown)
VH: B1 VH with S20T, D32A, S76T, L82M
VL: B1 VL
notes: also called 302H/321L
binding result [8]: binds

B5: anti-VEGF RabMAb EBV302 (antibody, V domains shown)
VH: B1 VH with S20T, D32A, S76T, L82M
VL: B1 VL with T19I, S27N, V28L, G30N, R51W, S64K, G90A, D98G
notes: also called 302H/302L; source: 293-6E cells, L and H chain plasmids co-transfected, purified (protein A)
IC50 [3]: 25.2 nM

B6: heavy chain of EBV307 paired with light chain of EBV302 (antibody, V domains shown)
VH: B1 VH with L3V, D9G, A15G, S16T, S20T, A23V, E59A, K72R, S76T, L82V
VL: B1 VL with T19I, S27N, V28L, G30N, R51W, S64K, G90A, D98G
notes: also called 307H/302L
binding result [8]: binds

B7: heavy chain of EBV307 paired with light chain of EBV320 (antibody, V domains shown)
VH: B1 VH with L3V, D9G, A15G, S16T, S20T, A23V, E59A, K72R, S76T, L82V
VL: B1 VL with S27N, V28L, G30N, R51W, S64K, G90A
notes: also called 307H/320L
binding result [8]: binds

B8: heavy chain of EBV307 paired with light chain of EBV321 (antibody, V domains shown)
VH: B1 VH with L3V, D9G, A15G, S16T, S20T, A23V, E59A, K72R, S76T, L82V
VL: B1 VL
notes: also called 307H/321L
binding result [8]: binds

B9: heavy chain of EBV320 paired with light chain of EBV307 (antibody, V domains shown)
VH: B1 VH with S20T, D32A, S76T, L82M
VL: B1 VL with P44R, A82F, G90S, S96Y, N100S
notes: also called 320H/307L
binding result [8]: binds

B10: heavy chain of EBV320 paired with light chain of EBV321 (antibody, V domains shown)
VH: B1 VH with S20T, D32A, S76T, L82M
VL: B1 VL
notes: also called 320H/321L
binding result [8]: binds

B11: heavy chain of EBV321 paired with light chain of EBV302 (antibody, V domains shown)
VH: B1 VH
VL: B1 VL with T19I, S27N, V28L, G30N, R51W, S64K, G90A, D98G
binding result [8]: binds

B12: heavy chain of EBV321 paired with light chain of EBV307 (antibody, V domains shown)
VH: B1 VH
VL: B1 VL with P44R, A82F, G90S, S96Y, N100S
binding result [8]: binds

B13: anti-VEGF RabMAb EBV307 (antibody, V domains shown)
VH: B1 VH with L3V, D9G, A15G, S16T, S20T, A23V, E59A, K72R, S76T, L82V
VL: B1 VL with P44R, A82F, G90S, S96Y, N100S
notes: also called 307H/307L; source: 293-6E cells, L and H chain plasmids co-transfected, purified (protein A)
IC50 [3]: 2.62 nM

B14: heavy chain of EBV321 paired with light chain of EBV320 (antibody, V domains shown)
VH: B1 VH
VL: B1 VL with S27N, V28L, G30N, R51W, S64K, G90A
binding result [8]: binds

B15: anti-VEGF RabMAb EBV320 (antibody, V domains shown)
VH: B1 VH with S20T, D32A, S76T, L82M
VL: B1 VL with S27N, V28L, G30N, R51W, S64K, G90A
notes: also called 320H/320L; source: 293-6E cells, L and H chain plasmids co-transfected, purified (protein A)
IC50 [3]: 3.32 nM
